# Experiment: yeast display, Sf9 membrane polyspecificity reagent, FACS + sequencing; frameworks hold sequencing errors
# Summary of the method: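 A synthetic nanobody library was expressed on Saccharomyces cerevisiae BJ5465 by galactose induction for 36–48 hours. The library was stained for 1 hour at 4 °C with 10% biotinylated, detergent-solubilized Sf9 membrane reagent and enriched with streptavidin microbeads before FACS. Low and high (top ~1%) gates were set on anti-HA fluorescence for expression and streptavidin fluorescence for reagent binding, and each polyreactivity label reflects the gate of origin.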
row,Sequence,polyreactivity (PSR sort gate)
1,QVQLVESGGGLVQAGGSLRLSSAASGSTFLYYVMGWYRQARGKERELVAGITSRGASTYYADSVKGRFTFSRDNAKNTVYLQMNSLKPEDTAVYDCAKPGFTYPGRYNYWGQGTQVTVSS,high polyreactivity
2,QVQLVESGGGLVQAGGSLRLSSAASGSTFPNYAMGWYRQAPGKERELVAAITSSTGRTYYADSVKGRFTISRDTAKNSVYVPLHSLKPADTAVYYCNAEVYSDPYNDHDYWGQGTQVTVSS,low polyreactivity
3,QVQLVESGGGLVQAGGSLRLSSAASGSTFRFNAKGWYRQAPGKERELVARISTIGGNTFYADSVKGRFTISRDNAKNTVYLQMNSLKTEDTAVYYCATTGGPSCRKYVYWGQGTQVTVSS,high polyreactivity
4,QVQLVESGGGLVQAGGSLRLSSAASGSTFRKNAMGWYRQAPGKERELVASISISGGRTNYADSVKGRFTISRDNAKNTVYLQMNSLKPEDTAVYYCAKQVKSYRTRYTFDYWGQGTQVTVSS,high polyreactivity
5,QVQLVESGGGLVQAGGSLRLSSAASGSTFTFYAMGWYRQAPGKERELVATISWSTGTTYYADSVKGRFTISRDNAKNTVYLQMNSLKPEVTAVYYCAAPWSYRYDYWGQGTQVTVSS,low polyreactivity
6,QVQLVESGGGLVQAGGSLRLSSAASGSTFTSYAMGWYRQAPGNEWELVAAINSGGGTNYADSVKGRFTISRDNAKNTVYLQMNSLKPEDTAVYYCAKSRYDYTKTEGGYWGQGTQGTVSS,low polyreactivity
7,QVQLVESGGGLVQAGGSLRLSSAASGSTFWFNAMGWYRQAPVKERELVAGISERGGRTYYADSVKGRFTISRDNAKNTVYLQMNRLKPEDPAVYYSNAGISPRRTTYYKYDYWGQGTQVNVSS,high polyreactivity
8,QVQLVESGGGLVQAGGSLRLSSAASGSTIYYYAMGLYRQAPGKEREFVATITQSGGSTYYADSVKGRFTISRDNAKNTVYLQMNSLKPEDTAVYYCAADSWEVDEADIYNSWGQGSQVTVSS,low polyreactivity
9,QVQLVESGGGLVQAGGSLRLSSAASRRIFSEYAMGWNRPEPGKERELVAAISKSGGRTYYADSVKGRFTISRDNAKNTVYFQMNSLKPEETAVDYCNARAVYPAGYAYDYWGQGTQVTVSS,high polyreactivity
10,QVQLVESGGGLVQAGGSLRLSSAATGFTFDKYAMGWYRQAPGKERELVAASSGSGGTTYYADSVKGRFTISRDNAKNTVYLQMNSLKPEDTAVYYCATRLYSIYSYGYWGHGTQVTVSS,high polyreactivity
11,QVQLVESGGGLVQAGGSLRLSSAATGGIFYSNAMGWYRQAPGKERELVAAITRSGTSTYYADSVKGRFTISRDNAKNTVYLQMNSLKPEDTAVYYCAADYRYRRSRGHVSKLYYWGQGTQGTVSS,low polyreactivity
12,QVQLVESGGGLVQAGGSLRLSSAATGSTSFQNAMGWYRQAPGKEREFVAAISGSGDRTNYADSVKGRFTISRDNAKNTVYLQMNSLIPEDTAVYYCAAVRGYPPTNYYYWGQGTQVTVSS,high polyreactivity
13,QVQLVESGGGLVQAGGSLRLSSADSGRIFRGYAMRLYRQAAGKVREFVAAISWGGGSKYYADSEKGRFTISRDNPKNTVYLQMNSLTPEDSAVYYCAAGSPYAYNYWGQGPQVTVSS,high polyreactivity
14,QVQLVESGGGLVQAGGSLRLSSADSGSIFVYYAMGWYRQEPGKESELVATIRSSGARTYYADSVKGRFTISRDNAKNTVYLQINSLKPEDTAVYYCNARYVPYWAYGYGYWGQGTQVTVSS,high polyreactivity
15,QVQLVESGGGLVQAGGSLRLSSAGSGSIFRVYALGWYRQAPGKERELVAVISIAGRTNYADSVKGRFTISRDNAKNTVYLQMNSLKPEDTAVYYCNAGGDGVATGYDYWGQGTQVTVSS,low polyreactivity
16,QVQLVESGGGLVQAGGSLRLSSAGSGSTFIIYAMGWYRQAPGKERELVAAISWSGGSTYYADSVKGRFTISRDNAKNTVYLQMNSLKPEDTEVYYWAVVYRTRWSDYDYWGQGTQVTVSS,low polyreactivity
17,QVQLVESGGGLVQAGGSLRLSSAHSGFIFAHNARGRYRQAPGKERELVAAITSSGGSTYYADSVKGRFRISRDNAKNTVYLQMNSVKPEDTAVYYCNDYTYARRGYDEWGQGTQVTVSS,high polyreactivity
18,QVQLVESGGGLVQAGGSLRLSSAPSGNTFYWYVMGWYRHAPGKERELVARINSSGGTTNYADSVKGRFTISRDNAKNTVYFQMNSLKPEVTAVYYCAADDIYLYGGGTDYYFCGQGTQVTVSS,low polyreactivity
19,QVQLVESGGGLVQAGGSLRLSSASSGSTFPGYTMRWYRPAPGKARELVAYITASDSSTYYADSEKGRFTISRDNAKNTVYLQINSLKPEDTAVYYSAKPPRHTWSFVDYRYEYWGQGTQGTVSS,low polyreactivity
20,QVQLVESGGGLVQAGGSLRLSSPASGRTFGRYTMGWYRQAPGKESELVATISYNGGRTYYADSVKGRFTISRDNAKNTVYLQMNSRKPEDTAVNYCATRLPKSSLHDYWGQGTQVTVSS,high polyreactivity
21,QVQLVESGGGLVQAGGSLRLSSPDSGLIFYLYAMGWYRQSHGKEREFVAAITSGGGSTYYADSVKGRFTISRDNAKNTVYLQINILIPEDTAVFYCAARLVLYITVVYEVDYWGQGTQVTVSS,low polyreactivity
22,QVQLVESGGGLVQAGGSLRLSSSASGRISGRNAMGWYRQAPGKERELVAVITRGDTNYADSVKGRFTISRDNAKNTVYLQMNSLKPEDTAVYYCAKEPLASGWGYDYWGQGTQVTVSS,high polyreactivity

row,Sequence,polyreactivity (PSR sort gate)
1,QVQLVESGGGLVQAGGSLRLSWAASGFTFKYNAMGLYRQAHGKERELVAAISGSGGRTYYSDSVKGRFTISRDNAKNTVYLQMNSLKPEYTAVYYCAAVYLVTLGARYDYWGQGTQVTVSS,high polyreactivity
2,QVQLVESGGGLVQAGGSLRLSWAASGFTFNRYAMGWYRQAPGKERELVAAISGSGASTYYADSVKGRFTISRDNAKNTVYLQMNSLKPEDTAVYYCATRYSRSYRSRDYYYWGQGTQVTVSS,high polyreactivity
3,QVQLVESGGGLVQAGGSLRLSWAASGFTFSVYAMGWYRQAPGKERELVAAISSGGSTNYADSVKGRFTISRDNAKITVYFQMNSLKPEDTAVYYCADSITVGYSNYYYWGQGSQVTVSS,high polyreactivity
4,QVQLVESGGGLVQAGGSLRLSWAASGGPFSSYDMGWYRQAPGTERELVADITNGGSTNFADSVKGRCTISRDNAKNTVYLQMNSLKPEDTAVYYCATDSYPGLNPDFDYWGHGTQVTVSS,low polyreactivity
5,QVQLVESGGGLVQAGGSLRLSWAASGITFDDYAMGWYRPAPGKERELVAAITWSGDSTYYADSVKGRFTISRDNAKNTVYLQMNSLKPEDTAVYYCAAVSYYWGQGTQVTVSS,high polyreactivity
6,QVQLVESGGGLVQAGGSLRLSWAASGITFRYYAMGWYRHAPGKERELVAAITSGGSTYYADSVKGRFTISRDNAKNTVYLQMNSLKPEDTAVYYCAAKYTLGVSRHPPVKKFYYWGQGTQVTVSS,high polyreactivity
7,QVQLVESGGGLVQAGGSLRLSWAASGITFVRYAMGWYRQAPGKEREFVAAINSIVGRTYYADSVKGRFTISRDNAKNTVYLQMNSLKPEDTAVYYCDADSNVRYGMDYWGQGTQVTVSS,low polyreactivity
8,QVQLVESGGGLVQAGGSLRLSWAASGNTFYGYAMGWYRQAPGKERELVAGIRWSGGSTSYADSVKGRFTISRDNAKNTVYLQMNSLKTEDTAVYYCAAGWYPWGYYSGYISYEYWGQGTQVTVSS,high polyreactivity
9,QVQLVESGGGLVQAGGSLRLSWAASGRIFGRYTMGWYTQAPGKERELVAAISSAGSTNYADSVKGRFTISRDNAKNTVYLQMNSLKPEDTAVYYCNRAKYVRYSLHYLGYARDYWGQGTQVTVSS,high polyreactivity
10,QVQLVESGGGLVQAGGSLRLSWAASGSIFNTYVMGWYRQAPGKEWELVAAITYSAGGDTYYADSVKGRFTISRDNAKNTVYLQMNSLKPEDTAVYYCAAEYTYLDAYGSYDYWGQGTQVTVSS,low polyreactivity
11,QVQLVESGGGLVQAGGSLRLSWAASGSIFRYNAMGWYRQAPGKERELVAAISSGGGTTYYADSVKGRFTISRDNAKNSVYLQMNSLKPEVTAVYYCNARSYYQRTTYPFRVDYWGQGTQVTVSS,high polyreactivity
12,QVQLVESGGGLVQAGGSLRLSWAASGSTFGFYAMGWYRQAPGKERELVASISSGGTTYHADSVKGRFTISRDNAKNTVYLQMNSLKPEDTAVYYSAAFYVATSKLGYWGQGSQVTVSS,low polyreactivity
13,QVQLVESGGGLVQAGGSLRLSWAASGSTFNSYAMGCYRQAPWKERELVAAITWSGGSTFYADSVKGRVTISRDNAKNTVYLQMNSLKPEDTSVYYCNADGPYYPPYPSTYVDGDSWGQGTQVTVSS,low polyreactivity
14,QVQLVESGGGLVQAGGSLRLSWAASGSTFVVYAMGWYRQAPGKERELVAAIDLSVGDTYYADSVKGRFTISRDNAKNTVFVQMNILKPEDTAVYYCAAEFYSYKYPDYDYWGQGTQVTVSS,low polyreactivity
15,QVQLVESGGGLVQAGGSLRLSWAAYGNIFPHYAMGWYIQAPGKERELVAGITSSGGSTSYADSVKGRFTISRDNAKKTVYLQMNSLKPEDTAVYYCAAPRGQRVRDVYWGQGTQVTVSS,low polyreactivity
16,QVQLVESGGGLVQAGGSLRLSYAASGFIFRYYAMGWYRQAPGKERELVAAIKASGGRTYYADSVKGRFTISRDNERNTVYLQINSLKPEDTAVYYCAASRSYQTFDYWGQGTQVTVSS,high polyreactivity
17,QVQLVESGGGLVQAGGSLRLSYAASGFTFTGYALGWYRQAPGKARELVAAISQSGGSTYADSVKGRFTISRDNAKNTVYLQMNSLKPEDTAVYYCAAVWFLLTEYDYWGQGTQVTVSS,low polyreactivity
18,QVQLVESGGGLVQAGGSLRLTCAASAFTFKLYVMGWYRHATGKERQFDAGITKRGGRTYYADSVKGRFTISRDNAKNTFYLQMNSLKPEDTAVYYCSAGTRIYNSCIRFDYWGQGTQVTVSS,high polyreactivity
19,QVQLVESGGGLVQAGGSLRLTCAASGFIFHRYAMGWYRQAPGKERELVAAITLNGGSTYYADSVKGRFTISRDNAKNTVYLQLNSLKPEDTAVYYCNAGWPWYVGGYYYWGQGTQVTVSS,low polyreactivity
20,QVQLVESGGGLVQAGGSLRLTCAASGFIFSKYAMGSYRQAPGKERELVAAISTSGASTYYADSVKGRFTISRDNAKNTVYLQMNSLKPEDTAVYYCNVPRYSPIRNYDYWGQGTQVTVSS,high polyreactivity
21,QVQLVESGGGLVQAGGSLRLTCAASGFIFVTYAMGWYRQPPGKERELVAAITNSGGTTYYADSVKGRFTISRDNAKNTVYLQMNSLKPEDTAVYYCNIPYGAETAHREFDYWGQGTQVTVSS,low polyreactivity
